What was measured:
Experiment in all cases: cell-based or functional assay
MAPKAP-K3(h) (human) = MAPKAP-K3(h) (human) (UniProt Q16644)
GRK7(h) (human) = target: T1, GRK7(h) (human) (UniProt Q8WTQ7)
T1 sequence (looked up): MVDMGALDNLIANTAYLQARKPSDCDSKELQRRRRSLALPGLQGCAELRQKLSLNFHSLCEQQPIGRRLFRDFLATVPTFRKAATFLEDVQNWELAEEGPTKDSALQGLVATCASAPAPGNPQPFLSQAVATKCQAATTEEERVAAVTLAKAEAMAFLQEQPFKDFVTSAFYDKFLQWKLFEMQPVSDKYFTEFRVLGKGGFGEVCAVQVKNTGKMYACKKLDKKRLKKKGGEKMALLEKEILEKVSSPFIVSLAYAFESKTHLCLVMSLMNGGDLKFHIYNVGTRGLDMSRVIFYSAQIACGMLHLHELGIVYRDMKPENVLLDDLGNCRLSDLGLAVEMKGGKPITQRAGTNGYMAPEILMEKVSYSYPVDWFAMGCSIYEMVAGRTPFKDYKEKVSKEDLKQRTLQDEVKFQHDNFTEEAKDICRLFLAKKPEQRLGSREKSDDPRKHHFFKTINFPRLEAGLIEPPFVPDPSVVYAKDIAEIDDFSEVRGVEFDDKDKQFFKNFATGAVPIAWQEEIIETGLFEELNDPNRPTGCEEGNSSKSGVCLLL

RIPK2(h) (human) = RIPK2(h) (human) (UniProt O43353)
Sequence of RIPK2(h) (human) (O43353 1-299 limits assumed): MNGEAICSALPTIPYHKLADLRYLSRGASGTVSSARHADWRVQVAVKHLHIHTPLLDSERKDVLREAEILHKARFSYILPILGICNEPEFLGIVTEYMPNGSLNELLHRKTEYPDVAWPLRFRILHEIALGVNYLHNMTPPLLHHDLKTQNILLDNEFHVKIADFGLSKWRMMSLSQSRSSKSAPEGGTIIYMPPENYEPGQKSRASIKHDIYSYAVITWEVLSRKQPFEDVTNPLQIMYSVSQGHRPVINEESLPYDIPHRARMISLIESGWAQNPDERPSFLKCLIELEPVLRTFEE

PKCβII(h) (human) = PKCβII(h) (human) (UniProt P05771)
CaMKIV(h) (human) = CaMKIV(h) (human) (UniProt Q16566)
ULK3(h) (human) = target: T2, ULK3(h) (human) (UniProt Q6PHR2)
T2 sequence (looked up): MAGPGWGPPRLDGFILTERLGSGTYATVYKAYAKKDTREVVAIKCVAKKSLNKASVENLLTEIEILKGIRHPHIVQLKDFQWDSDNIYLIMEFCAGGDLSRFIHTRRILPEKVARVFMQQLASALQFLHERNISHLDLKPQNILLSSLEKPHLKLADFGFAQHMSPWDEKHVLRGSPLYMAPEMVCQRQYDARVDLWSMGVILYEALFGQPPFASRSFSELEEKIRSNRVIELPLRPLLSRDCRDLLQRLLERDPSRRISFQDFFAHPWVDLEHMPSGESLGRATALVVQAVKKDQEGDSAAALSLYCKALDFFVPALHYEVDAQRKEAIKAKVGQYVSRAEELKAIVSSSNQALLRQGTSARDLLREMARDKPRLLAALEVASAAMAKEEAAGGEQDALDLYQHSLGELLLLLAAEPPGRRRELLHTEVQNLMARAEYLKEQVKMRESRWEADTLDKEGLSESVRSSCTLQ

GCK(h) (human) = target: T3, GCK(h) (human) (UniProt Q12851)
T3 sequence (looked up): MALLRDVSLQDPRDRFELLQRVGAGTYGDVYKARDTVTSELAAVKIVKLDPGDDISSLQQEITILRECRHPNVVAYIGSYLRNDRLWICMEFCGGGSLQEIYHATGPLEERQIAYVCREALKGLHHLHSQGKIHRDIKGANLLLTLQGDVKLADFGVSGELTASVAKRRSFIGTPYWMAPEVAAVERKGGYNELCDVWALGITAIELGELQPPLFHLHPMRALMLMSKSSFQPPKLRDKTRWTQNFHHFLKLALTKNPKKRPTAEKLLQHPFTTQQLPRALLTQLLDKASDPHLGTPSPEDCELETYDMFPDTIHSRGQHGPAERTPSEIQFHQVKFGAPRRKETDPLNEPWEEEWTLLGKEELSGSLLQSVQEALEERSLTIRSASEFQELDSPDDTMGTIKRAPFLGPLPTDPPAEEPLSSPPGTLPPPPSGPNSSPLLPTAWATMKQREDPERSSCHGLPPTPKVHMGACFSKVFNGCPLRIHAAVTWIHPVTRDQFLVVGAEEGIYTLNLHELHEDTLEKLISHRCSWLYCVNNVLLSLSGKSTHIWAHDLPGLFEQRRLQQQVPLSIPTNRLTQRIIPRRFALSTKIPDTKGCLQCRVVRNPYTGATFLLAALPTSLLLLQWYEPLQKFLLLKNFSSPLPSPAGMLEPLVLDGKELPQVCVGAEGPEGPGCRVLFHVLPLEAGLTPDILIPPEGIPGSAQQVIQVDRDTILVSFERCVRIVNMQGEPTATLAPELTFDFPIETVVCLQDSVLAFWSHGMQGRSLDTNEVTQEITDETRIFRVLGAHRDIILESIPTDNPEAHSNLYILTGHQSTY

IRAK4(h) (human) = target: T4, IRAK4(h) (human) (UniProt Q9NWZ3)
T4 sequence (looked up): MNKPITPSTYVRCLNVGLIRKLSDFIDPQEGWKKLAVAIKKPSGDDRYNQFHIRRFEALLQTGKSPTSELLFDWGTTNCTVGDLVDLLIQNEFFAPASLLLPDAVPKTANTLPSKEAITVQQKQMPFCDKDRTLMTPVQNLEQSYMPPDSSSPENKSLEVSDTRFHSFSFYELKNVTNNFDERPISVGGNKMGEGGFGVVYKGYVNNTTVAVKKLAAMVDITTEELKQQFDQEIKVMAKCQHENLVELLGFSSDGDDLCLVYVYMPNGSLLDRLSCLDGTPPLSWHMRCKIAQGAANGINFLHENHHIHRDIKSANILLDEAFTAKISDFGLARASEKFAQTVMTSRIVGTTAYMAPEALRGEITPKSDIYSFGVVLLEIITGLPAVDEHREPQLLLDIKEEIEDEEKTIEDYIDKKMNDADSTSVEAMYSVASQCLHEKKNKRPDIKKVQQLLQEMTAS

Axl(h) (human) = target: T5, Axl(h) (human) (UniProt P30530)
T5 sequence (looked up): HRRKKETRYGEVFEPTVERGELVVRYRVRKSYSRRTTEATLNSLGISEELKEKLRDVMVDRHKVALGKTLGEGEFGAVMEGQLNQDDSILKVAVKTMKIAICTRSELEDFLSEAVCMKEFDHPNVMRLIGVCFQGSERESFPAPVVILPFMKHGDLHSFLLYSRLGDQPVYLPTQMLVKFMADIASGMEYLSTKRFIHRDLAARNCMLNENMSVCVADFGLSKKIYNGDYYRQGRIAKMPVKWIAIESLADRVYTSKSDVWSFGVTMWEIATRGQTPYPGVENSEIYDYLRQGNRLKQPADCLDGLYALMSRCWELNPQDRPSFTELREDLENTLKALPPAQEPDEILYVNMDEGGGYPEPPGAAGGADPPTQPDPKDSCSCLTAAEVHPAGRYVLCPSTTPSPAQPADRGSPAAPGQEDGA

CDK2/cyclinA(h) (human) = CDK2/cyclinA(h) (human) (UniProt P24941)

Row | Substance | % activity at 100 µM (MAPKAP-K3(h) (human)) [%] | % activity at 100 µM (GRK7(h) (human)) [%] | % activity at 100 µM (RIPK2(h) (human)) [%] | % activity at 100 µM (PKCβII(h) (human)) [%] | % activity at 100 µM (CaMKIV(h) (human)) [%] | % activity at 100 µM (ULK3(h) (human)) [%] | % activity at 100 µM (GCK(h) (human)) [%] | % activity at 100 µM (IRAK4(h) (human)) [%] | % activity at 100 µM (Axl(h) (human)) [%] | % activity at 100 µM (CDK2/cyclinA(h) (human)) [%]
1 | MMI-0400 (peptide) | 7 | 100 | 98 | 75 | 18 | 147 | 66 | 59 | 41 | 92
2 | MMI-0300 (peptide) | 3 | 122 | 97 | 82 | 17 | 167 | 70 | 59 | 52 | 86
3 | MMI-0500 (peptide) | 9 | 93 | 30 | 3 | -1 | 177 | 30 | 3 | 12 | 87

Source: patent publication US20150064134A1
